The results in this text go back to a protein production outcome set (Wang et al. 2014).

The series in a line: label from the status in PepcDB records.
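Also: failed if final PepcDB status was selected cloned or expressed and not failed if soluble or beyond.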

Regarding “MDCRLKCTNQCTSLMMAFDKSHTIKGCSTEFSLSMTDTPILGTVKEPQRDYRTLDRQKLTPMFQHYTEVKEQYQGALLLYRVGDFFECFFQDAVIIARELELILTSKEGGKEIGRVAMTGVPHHALDRYARQLVEKGYAVAICDQVEDAAEAQAEKRMVERQVTKLLTPGTLTDDSMLPAKRNNFLAAIAMVEDKWGLAHADISTGEFFTCQSSNLDDLAVELLRLQPSEVLIPTSAPDIRNILRPGEPSEHIPKQLPTSFCYSLRSQAPFSLVEAKQRLLTTFRVKSLEGMGCEGLPLAIRAAGGLLEYIEDTQKAHVVPIQPLKTYGLTDFLVLDHQTRRNLEINQTVRDGSFHGSLLWALDRTSTTMGSRALRRWLLQPLLDLKGIQARQDTIQELYHHPALRQDLRQLLRQIYDLERLTGRIGANTASARDVYGLASSLVRLTDLAELAQEGHSPYLKALQTVPPELEELGKYVLAHIVENPPLHIREGNLIRSGVNPTLDEMRQSLEDDNQWLANLEVTEREKTGIANLKVGYNKAFGYYLSLPRSKSEQAPDNYIRKQTLVNEERYITPELKERETRILTAQADLNQLEYEIFTEVRATVAEKAQPIRDVAKAVAAIDVLAGLAEVAVYQGYCRPIMQMEPGLIDIEAGRHPVVEQSLGAGFFVANDTQLGHDHWHPDLVILTGPNASGKSCYLRQVGLIQLMAQTGSFIPAKTATLSICDRIFTRVGAVDDLATGQSTFMVEMNETANILNHATAKSLVLLDEIGRGTATFDGLAIAWSVAEYLAGEIQARTIFATHYHELNELASLLENVANFQVTVKELPEEIIFLHQVTPGGADKSYGIEAGRLAGLPSSVITRARQVMAQIEKHSKIAVGLRKGNRGKVMASQAAAEAAEDQAKQLDIFGF”, the protein production entry is given as “failed”.

Regarding “MDDGNENISMEVVEPEDAESDMSSDSGSDAEDDTAEPKAPKEVYLPGTKLADDEELVCDESAYVMLHQASTGAPCLSFDVIPDELGSGRQSFPMTAYIVAGTQASRAHVNNLIVMKMSNLHKTQDNDGDEDEELEDDQDDVTDREELKKPQMTCALVKHQGCVNRVRARRLGNSVYAASWSELGRVNIWDLTQPLQAVENAQLAKQYEQSEARPVFTFGGHQQEGFAIDWSPSADGVLATGDCRRDIHVWTPVEDGTWKVDQRPLAGHSQSVEDLQWSPNERSVLASCSVDKTIRIWDCRASPQKACMLTCEDAHQSDVNVISWNRNEPFIASGGDDGYLHIWDLRQFQSKKPIATFKHHTDHITTVEWSPAEATVLASGGDDDQIALWDLAVEKDIDQAVDPAQNEDVLNKLPPQLLFIHQGQKEIKELHWHPQLPGVLLSTAHSGFNIFRTISV”, the protein production entry was “failed”. With “MDDNTKELEQYWDEFSQEYEEIQNESLVDIGQQLKEFLLAEKLLPTSQFLDLAGGTGKYIPHFSNFTDSYHLVDLSAKMLEFAKNKSADSNKITFTHQEQNKFLKNTKENTYDFVFSAMNPALESKEALVELNRIANGNVGILRLIFDEDNLFSQVEQLYLPNQEQNKEAQMLLYKVWLEELGWEFKSKKFRFFLSEKVSSQFFSDYFSDELSNAELAALTQLFFSETEIREMERLVIFELLYWEKC”, the protein production result is “failed”. The entry for “MDEEIDTRKINNSFLRDHNYATEADIISTVEFNPTGELLATGDKGGRVVVFQREQESKNQPHRRGEYNVYSTLLKDWIMLIKTHRKNFRRKGKQLGFKCGSIY” is “failed”. The entry for “MDEISTGMLLVILAVLLFLSAYFSGSETGMMSINRYRLRHLVQNNHPGAKRVQYLLDRPDRLIGLILIGNNLVNIGASAIATILCLRWFGDAGIVIATFGLTLIILIFSEVTPKTIAALHPERISFPSSLILMPLLKVMYPIVIGMNFITNSFMRLLGVNPKQSQMADALSSDELRTVVNEAGNLIPTSHQEMLVSILDLEKVTVEDVMVPRNEIVGIDISDDWKSIVKQLSNGQHTRVLLYRNEIDDAIGFLHARDIMRLMSKNQFTADKSILVRAARDSYFIPEGTPLNVQLLKFQRRKERIGLVVDEYGDIQGLVTLEDILEEIVGDFTTSMAPAPSESVTLETDGSFLVDGSANLRELNKEMNWDFPTDGPKTLSGLIIEQFGDIPDARLSLRLGGYPVELVEIGDTMIKQIRVFPELYQKPDNQTND” is “failed”; for “MDEQSVESIAEVFRCFICMEKLRDARLCPHCSKLCCFSCIRRWLTEQRAQCPHCRAPLQLRELVNCRWAEEVTQQLDTLQLCSLTKHEENEKDKCENHHEKLSVFCWTCKKCICHQCALWGGMHGGHTFKPL” it is “failed”. Consider “MDERRFFRDVCAEWMEQYRLTVRESTLEKTQRIINIHVLPAFGDMVINNITPNVCQKVVNKWFLEAKSYKKWLNYASMIFDYALRAEYVGRNPCTLVTMPRVQEQAGEKLEHHHHHH”, for which the protein production result was “failed”.
